We go through 19 substances from patent US20080020405A1, “Protein binding determination and manipulation” (priority 2002, published 2008).

This test concerns the target T1, WT SCCE (Stratum Corneum Chymotryptic Enzyme) (Homo sapiens, UniProt P49862).
T1 construct: made in house; host or cells: High 5 insect cells, transient transfection with pIE1-153A V4+ plasmid, protein secreted into the medium, Ni-NTA purified
Description: Panning of the 6mer tandem phage peptide display library against WT SCCE, four rounds, clones sequenced. It is filed as binding. The conditions noted are these: for Hypervarible Domain, DNA sequence of clone, 6 mer Lib Panning Round 4 SCCE WT / Hypervarible Domain, peptide sequence of clone, 6 mer Lib Panning Round 4 SCCE WT: 6mer library, panning round 4 against SCCE WT; for Hypervarible Domain, DNA sequence of clone, 6 mer Lib Panning Round 4 SCCE WT: flanking TGC (Cys) codons; for Hypervarible Domain, peptide sequence of clone, 6 mer Lib Panning Round 4 SCCE WT: translated hexapeptide. On the procedure: Packaging of Phagemids from Cells • 1. Re-suspend the complete lawns of the E. coli cells in 20 ml of LB/Amp/Tc medium and use 2 ml for inoculation of 50 ml LB/Amp/Tc medium (250 ml Erlenmeyer flask). • 1. Incubate at 180 rpm and 37° C. for 1 hour, add […] of M13K07 stock solution (10^11-10^12 cfu/ml) and incubate for 15 minutes at 37° C. without shaking. • 2. Allow the culture to shake at 37° C. for 45 min, then add Kanamycin (final concentration of 50 μg/ml) and continue the incubation at 37° C. @ 180 rpm overnight. • 3. The next day, centrifuge for 15 minutes at 8,000 rpm and 4° C. (GS3 rotor, Sorvall RC5C). • 4. Transfer the supernatant into a new centrifuge bottle and centrifuge again. • 5. Transfer the supernatant again, add 0.15 vol of PEG/NaCl solution, mix and incubate on ice for at least 2 hours. • 6. Centrifuge for 40 minutes at 8,000 rpm (GS3 rotor) • 7. Decant the supernatant, repeat the centrifugation for 1 minute at 4,000 rpm and remove last traces of supernatant using a pipet. • 8. Re-suspend each PEG-pellet in 1.0 ml PBS solution and collect the re-suspended phages in one SS34 centrifuge bottle • 9. To clear the suspension, centrifuge again for 10 minutes at 12,000 rpm (SS34 rotor). • 10. Recover the supernatant (pipet), add NaN3 to a final concentration of 0.02% and store the library at 4° C. Determination of Phagemid (Library) Titer (Colony Forming Units [CFU] Assay) • 1. Inoculate 20 ml of LB/Tc (20 μg/ml) medium with 200 μl of an E. coli WK6λmutS overnight culture (37° C.; LB/Tc) and incubate at 37° C. and 180 rpm for 2 to 3 hours (OD600=0.5) • 2. Fill 12 wells of a sterile 96-well culture dish with 90 μl of autoclaved water and prepare dilution series by transferring 10 μl aliquots of the library stock (dilutions 10^−1 to 10^−12). • 3. Add 100 μl of logarithmic growing cells, mix and incubate for 30 min at 37° C. • 4. Spot 20 μl portions of each well on LB/Amp/Tc agar plates and incubate over night at 37° C. • 5. As a control use 20 μl of non-infected log-phase cells spotted on LB/Amp/Tc and LB/Tc agar plates. • 6. Count the number of colonies on the next day and determine the titer. Panning Protein Targets • WT SCCE is the Stratum Corneum Chymotryptic Enzyme subdloned in the pIE vector and adapted with a carboxy-terminal polyglycine linker and polyhistidine sequence to facilitate purification and immobilization (see WT SCCE preparation below). The adaptations were performed using a QuickChange mutagenesis kit. The sequence is listed in document SCCE His6 pIE.doc. • Fyn SCCE is the Stratum Corneum Chymotryptic Enzyme adapted with a polyglycine liker, the Fyn SH3 domain and additional polyglycine linker and a polyhistidine sequence (see Fyn SCCE preparation below). The final sequence is listed in document SCCE FYN His6 pIE.doc. The modifications to create Fyn SCCE were performed using WT SCCE as a template using a QuickChange mutagenesis kit. • The expression and purification of WT SCCE and Fyn SCCE are presented in document SCCE production.doc Pre-Adsorption of Library with Matrix to Remove Non-Specific Binding • 1. Take 25 μl Ni-NTA Magnetic Agarose Beads (Qiagen) in a 1.5 ml tube (siliconized), labeled pre-adsorption library. • 2. Place in Magnet and remove Sup. • 3. Wash 2 times (2 min each time) with 500 μl Ni-NTA Binding Buffer (50 mM NaH2PO4 pH8.0, 300 mM NaCl, 10 mM Imidazole) to equilibrate beads to Immidizole. • 4. Add 200 μl TBS-T 0.1% BSA+200 μl (10^12 phage) of 6mer library to tube labeled pre-adsorption library (to remove phage that stick non-specifically to the beads). • 5. Incubate @ room temperature for 1 h w/rotation. Coating Matrix with Target Protein • 6. Take 25 μl Ni-NTA Magnetic Agarose Beads (Qiagen) in 2 separate 1.5 ml Ep tubes (siliconized), labeled SSCE-WT and SCCE-FYN. • 7. Place in Magnet and remove Sup. • 8. Wash 2 times (2 min each time) with (500 μl) Ni-NTA Binding Buffer (50 mM NaH2PO4 pH8.0, 300 mM NaCl, 10 mM Imidazole) to equilibrate beads to Immidizole. • 9. […]

T1 sequence (P49862 30-253): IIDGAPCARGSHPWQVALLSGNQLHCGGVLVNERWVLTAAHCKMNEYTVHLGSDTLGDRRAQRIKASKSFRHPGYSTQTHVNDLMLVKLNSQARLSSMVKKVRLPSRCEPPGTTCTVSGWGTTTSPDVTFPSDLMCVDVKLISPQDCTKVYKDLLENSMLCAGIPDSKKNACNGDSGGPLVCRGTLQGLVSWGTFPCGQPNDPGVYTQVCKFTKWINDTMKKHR

For “041307_3 (QPHTWK; printed: Gln Pro His Thr Trp Lys)”, the “Hypervarible Domain, DNA sequence of clone, 6 mer Lib Panning Round 4 SCCE WT” value (“Hypervarible Domain, DNA sequence” for short) is reported as “TGCCAGCCGCATACGTGGAAGTGC” and the “Hypervarible Domain, peptide sequence of clone, 6 mer Lib Panning Round 4 SCCE WT” value (from here on “Hypervarible Domain, peptide sequence”) is reported as “Gln Pro His Thr Trp Lys”. Further, the “Clone sequence also found in the other panning (remark)” value (panning round 4 SCCE WT) is listed as “(Also in SCCE FYN)”.

In the case of “041307_4 (TAAVDQ; printed: Thr Ala Ala Val Asp Gln)”, the “Hypervarible Domain, DNA sequence” value is recorded as “TGCACGGCTGCGGTGGATCAGTGC” and the “Hypervarible Domain, peptide sequence” value is recorded as “Thr Ala Ala Val Asp Gln”.

With “041307_5 (KQNSEA; printed: Lys Gln Asn Ser Glu Ala)”, the “Hypervarible Domain, DNA sequence” value was “TGCAAGCAGAATAGTGAGGCGTGC” and the “Hypervarible Domain, peptide sequence” value is on record as “Lys Gln Asn Ser Glu Ala”.

In the case of “041307_7 (PVAETP; printed: Pro Val Ala Glu Thr Pro)”, the “Hypervarible Domain, DNA sequence” value is “TGCCCTGTGGCGGAGACGCCTTGC” and the “Hypervarible Domain, peptide sequence” value is reported as “Pro Val Ala Glu Thr Pro”.

Take “041307_8 (TPNSAI; printed: Thr Pro Asn Ser Ala Ile)”: the “Hypervarible Domain, DNA sequence” value was “TGCACGCCTAATTCTGCGATTTGC” and the “Hypervarible Domain, peptide sequence” value is on record as “Thr Pro Asn Ser Ala Ile”.

In the case of “041307_10 (SHVRRN; printed: Ser His Val Arg Arg Asn)”, the “Hypervarible Domain, DNA sequence” value is “TGCAGTCATGTTAGGCGTAATTGC” and the “Hypervarible Domain, peptide sequence” value is listed as “Ser His Val Arg Arg Asn”.

On to “041307_11 (HHGLIV; printed: His His Gly Leu Ile Val)”, for which the “Hypervarible Domain, DNA sequence” value is recorded as “TGCCATCATGGGCTTATTGTGTGC” and the “Hypervarible Domain, peptide sequence” value is given as “His His Gly Leu Ile Val”.

Take “041307_12 (YAKTMR; printed: Tyr Ala Lys Thr Met Arg)”: the “Hypervarible Domain, DNA sequence” value is “TGCTATGCGAAGACGATGCGGTGC” and the “Hypervarible Domain, peptide sequence” value was “Tyr Ala Lys Thr Met Arg”.

In the case of “041307_17 (HHGLIV; printed: His His Gly Leu Ile Val)”, the “Hypervarible Domain, DNA sequence” value is given as “TGCCATCATGGGCTTATTGTGTGC” and the “Hypervarible Domain, peptide sequence” value is on record as “His His Gly Leu Ile Val”.

In the case of “041307_18 (HHGLIV; printed: His His Gly Leu Ile Val)”, the “Hypervarible Domain, DNA sequence” value is reported as “TGCCATCATGGGCTTATTGTGTGC” and the “Hypervarible Domain, peptide sequence” value is listed as “His His Gly Leu Ile Val”.

With “041307_19 (HHGLIV; printed: His His Gly Leu Ile Val)”, the “Hypervarible Domain, DNA sequence” value was “TGCCATCATGGGCTTATTGTGTGC” and the “Hypervarible Domain, peptide sequence” value was “His His Gly Leu Ile Val”.

As to “041307_22 (HHGLIV; printed: His His Gly Leu Ile Val)”, the “Hypervarible Domain, DNA sequence” value was “TGCCATCATGGGCTTATTGTGTGC” and the “Hypervarible Domain, peptide sequence” value was “His His Gly Leu Ile Val”.

“041307_25 (TPKAKP; printed: Thr Pro Lys Ala Lys Pro)”: the “Hypervarible Domain, DNA sequence” value is reported as “TGCACTCCTCTGGCGCTTCCTTGC” and the “Hypervarible Domain, peptide sequence” value is “Thr Pro Lys Ala Lys Pro”.

For the substance “041307_27 (KKKKTK; printed: Lys Lys Lys Lys Thr Lys)”, the “Hypervarible Domain, DNA sequence” value was “TGCAAGAAGAAGAAGACGAAGTGC” and the “Hypervarible Domain, peptide sequence” value is “Lys Lys Lys Lys Thr Lys”.

“041307_29 (HHGLIV; printed: His His Gly Leu Ile Val)”: the “Hypervarible Domain, DNA sequence” value is listed as “TGCCATCATGGGCTTATTGTGTGC” and the “Hypervarible Domain, peptide sequence” value is “His His Gly Leu Ile Val”.

Take “041307_30 (PNNKIR; printed: Pro Asn Asn Lys Ile Arg)”: the “Hypervarible Domain, DNA sequence” value was “TGCCCGAATAATAAGATTAGGTGC” and the “Hypervarible Domain, peptide sequence” value is reported as “Pro Asn Asn Lys Ile Arg”.

In the case of “041307_31 (TSTRPP; printed: Thr Ser Thr Arg Pro Pro)”, the “Hypervarible Domain, DNA sequence” value is “TGCACTTCTACTAGGCCTCCTTGC” and the “Hypervarible Domain, peptide sequence” value is “Thr Ser Thr Arg Pro Pro”.

Turning to “041307_32 (HMNMYI; printed: His Met Asn Met Tyr Ile)”, the “Hypervarible Domain, DNA sequence” value is “TGCCATATGAATATGTATATTTGC” and the “Hypervarible Domain, peptide sequence” value was “His Met Asn Met Tyr Ile”.

“041307_35 (TGAGRS; printed: Thr Gly Ala Gly Arg Ser)”: the “Hypervarible Domain, DNA sequence” value is “TGCACGGGGGCGGGGCGGTCGTGC” and the “Hypervarible Domain, peptide sequence” value was “Thr Gly Ala Gly Arg Ser”.
